Target: T1, human MU-1 Ig fusion protein (human, UniProt Q9HBE5 20-235)
T1 construct: also called MUFc; IL-21R; not shown: Ig part of the fusion protein
Test: Biacore, MU-1 Ig fusion protein immobilized on chip
Description: Both human and murine Ig fusion proteins were constructed and immobilized on Biacore chips in an effort to identify the ligand for MU-1. A variety of cell culture conditioned media as well as a panel of known cytokines were evaluated for binding to MU-1. Some cytokines were also tested in combination with other receptor chains in the family to consider the possibility that MU-1 may require a second receptor chain for ligand binding. The following cytokines were tested and found to be negative for MU-1 binding: mIL-2, hIL-2, hIL-15, mIL-7, TSLP, TSLP+IL-7, TSLP+IL-7R, TSLP+IL-7g, TSLP+IL-2, TSLP+IL-2+IL-2Rbeta, IL2-Rbeta, IL-2Rgamma, IL-7R, IL-2+IL-2Rbeta, IL-2+IL-2Rgamma, IL-15+IL-2Rbeta, IL-15+IL-2Rgamma, IL-7+IL-2Rgamma, IL-2+IL-7R, IL-15+IL-7R, IL-7+IL-7R. Known receptors have been immobilized as well and tested for MUFc binding with negative results. IL-15 will bind to IL-2Rb but not IL-2Rg or MUFc.

T1 sequence (Q9HBE5 20-235): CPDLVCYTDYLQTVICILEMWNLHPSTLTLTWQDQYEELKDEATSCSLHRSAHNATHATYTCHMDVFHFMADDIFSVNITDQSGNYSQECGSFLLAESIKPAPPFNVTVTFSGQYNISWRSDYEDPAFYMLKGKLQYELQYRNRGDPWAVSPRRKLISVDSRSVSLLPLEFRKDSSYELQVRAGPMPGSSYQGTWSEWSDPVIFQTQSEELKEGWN

binding result | Binder
no binding | mIL-7 (ligand, murine, UniProt P10168 26-154, looked up) ECHIKDKEGKAYESVLMISIDELDKMTGTDSNCPNNEPNFFRKHVCDDTKEAAFLNRAARKLKQFLKMNISEEFNVHLLTVSQGTQTLVNCTSKEEKNVKEQKKNDACFLKRLLREIKTCWNKILKGSI
no binding | mIL-2 (ligand, murine, UniProt P04351 21-169, looked up) APTSSSTSSSTAEAQQQQQQQQQQQQHLEQLLMDLQELLSRMENYRNLKLPRMLTFKFYLPKQATELKDLQCLEDELGPLRHVLDLTQSKSFQLEDAENFISNIRVTVVKLKGSDNTFECQFDDESATVVDFLRRWIAFCQSIISTSPQ

Reference: patent publication US20080241098A1 (Pfizer, published 2008)
